Source: patent publication US20090264512, “NUCLEIC ACID LIGANDS CAPABLE OF BINDING TO […] OR INTERNALIN A” (published 2009)

T1: Internalin A (InlA) (Listeria monocytogenes, UniProt P0DJM0 P0DJM0:36-770)
T1 sequence: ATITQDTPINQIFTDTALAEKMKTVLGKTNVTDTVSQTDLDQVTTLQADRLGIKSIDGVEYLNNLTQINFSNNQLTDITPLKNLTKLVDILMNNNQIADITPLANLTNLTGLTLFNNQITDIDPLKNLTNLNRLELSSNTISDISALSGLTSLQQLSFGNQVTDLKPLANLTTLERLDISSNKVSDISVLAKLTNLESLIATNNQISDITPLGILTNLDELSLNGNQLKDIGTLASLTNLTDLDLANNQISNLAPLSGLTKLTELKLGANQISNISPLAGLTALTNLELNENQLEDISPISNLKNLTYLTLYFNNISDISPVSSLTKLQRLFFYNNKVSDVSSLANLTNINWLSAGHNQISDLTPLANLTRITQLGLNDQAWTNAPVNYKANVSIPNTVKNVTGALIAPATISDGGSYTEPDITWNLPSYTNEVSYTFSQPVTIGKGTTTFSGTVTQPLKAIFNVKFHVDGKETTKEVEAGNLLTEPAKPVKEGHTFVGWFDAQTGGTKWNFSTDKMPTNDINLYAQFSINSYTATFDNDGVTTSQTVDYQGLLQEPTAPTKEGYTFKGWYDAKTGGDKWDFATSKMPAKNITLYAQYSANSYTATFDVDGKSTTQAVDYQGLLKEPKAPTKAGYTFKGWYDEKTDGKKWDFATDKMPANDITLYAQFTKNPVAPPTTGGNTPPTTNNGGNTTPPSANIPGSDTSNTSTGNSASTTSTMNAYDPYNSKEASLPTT


How the values were obtained:
Internalin A (InlA) [1] = target: T1, Internalin A (InlA); assay: ELONA; strong ELISA signal compared to library; details: tags: His-tag
Protocol: A nickel-coated microplate (HisSorb, Qiagen) was used to bind 500 ng his-tagged inlA, peptide D or 0610 (Listeria monocytogenes-specific non-internalin cell wall protein) to the plate as per manufacturer's directions. Biotinylated aptamer or aptamer library (5 ng/μL) was heated to 95° C. for 3 minutes and quickly cooled to 4° C. for 5 minutes before application to each well. The biotinylated aptamer or aptamer library was incubated with the bound proteins in the HisSorb plate overnight at 4° C. with gentle shaking. Wells were then washed four times with 200 μL PBS-T. Streptavidin-horseradish peroxidase was added to the wells for 30 minutes at room temperature with gentle shaking. The wells were washed as described previously before development with TMB (Pierce). The reactions were stopped with 1M H₂SO₄ and absorbance was measured at 450 nm using a ThermoMax microplate reader (Molecular Devices). In FIG. 6, the initial aptamer library was used as a negative control, and the data represents the average±S.D. of n=3. […] The amount of selected aptamer bound to the particular proteins was determined by absorbance measured. The data represents the average±S.D. of n=3.

Internalin A (InlA) [2] = target: T1, Internalin A (InlA); assay: competition; competitive ELISA, sigmoidal fit; details: tags: His-tag
Protocol: A specified amount of internalin A (500 ng) was coated on the plate. 5 ng/uL biotinylated aptamer A8 (SEQ ID NO:21) was incubated with increasing amounts of non-biotinylated aptamer A8 and then applied to the coated plates. Using GraphPad Prism 4 software, the Sigmoidal model (equation: a+(b−a)/(1+10̂(x−c))) was used to determine EC50.

Binder | binding result (Internalin A (InlA) [1]) | EC50 (Internalin A (InlA) [2]) [nM]
ATCGGATGTGGGCAGGGGGGGGTGGGAAACGATTACAGACACAAGAT (ssDNA) [InlA aptamer SEQ 24] | binds | –
ATCCATGGGGCGGAGATGAGGGGGAGGAGGGCGGGTACCCGGTTGAT (ssDNA) [A8] | – | 544
ATCTAGGACTGGGTGGGAAGGGATGGGAAAAATGTCCGCGCCTCGAT (ssDNA) [InlA aptamer SEQ 22] | binds | –
ATCAGCAACAAGTGTGGGTAAGGGGAGGGCGGGAATGGGATGATGAT (ssDNA) [InlA aptamer SEQ 23] | binds | –
ATCGGGTTATAGTTAGCGGGTAGGGGAGGGAGGGTAGATAGCTCGAT (ssDNA) [InlA aptamer SEQ 25] | binds | –
